A word on the Kd: it is the free concentration of one partner at which half of the binding sites on the other are occupied at equilibrium, for simple one-to-one binding.

The values below come from patent US11306156.

Assay [1] has as its target D3H44 Fab heavy chain L143E_K145T_S188L, C-terminal ABD2-His6 tag. Kind of assay: LCCA: heavy chain co-expressed with two light chains, SPR detection of light chain tags; L1:L2 DNA 1:3, normalized to 1:1; competing light chain m11.
The target in assay [2] is D3H44 Fab heavy chain S186K, C-terminal ABD2-His6 tag. The assay is described as above.
Assay [3] concerns the target D3H44 Fab heavy chain Q179K, C-terminal ABD2-His6 tag. The description is as above.
Assay [4] concerns the target tissue factor (TF) antigen (UniProt P13726). Kind of assay: SPR; Fab captured by anti-His, TF as analyte; LCCA set 9375. Background: In SPR one partner is held on a chip, and binding of the other changes the refractive index at the surface.
For assay [5] the target is unchanged. Kind of assay: SPR; Fab captured by anti-His, TF as analyte; LCCA set 9374.
Assay [6] shares this target. As to the kind of experiment: SPR; Fab captured by anti-His, TF as analyte; LCCA set 9116.
Assay [7] has the same target. As to the kind of experiment: SPR; Fab captured by anti-His, TF as analyte; LCCA set 9814.
For assay [8] the target is unchanged. Kind of assay: SPR; Fab captured by anti-His, TF as analyte; LCCA set 9347.
Assay [9] shares this target. As to the kind of experiment: SPR; Fab captured by anti-His, TF as analyte; LCCA set 9813.
Assay [10] has the same target. Kind of assay: SPR, Fab captured by anti-His, TF as analyte; * estimated from Fab differing only in L chain tag.
For assay [11] the target is unchanged. As to the kind of experiment: SPR; reference wild-type D3H44 Fab; * estimated value.
Assay [12] shares this target. As to the kind of experiment: SPR, Fab captured on anti-penta His, TF injected; * estimated value taken from a Fab differing only in the L chain tag.
Assay [13] has the same target. Kind of assay: SPR; Fab captured by anti-His, TF as analyte; LCCA set 10549 (identifier in reverse orientation, assigned by Table 12).
Assay [14] has the same target. As to the kind of experiment: SPR; Fab captured by anti-His, TF as analyte; LCCA set 10549.
Assay [15] shares this target. Kind of assay: SPR; Fab captured by anti-His, TF as analyte; LCCA set 9746.
Assay [16] shares this target. As to the kind of experiment: SPR; Fab captured by anti-His, TF as analyte; LCCA set 9060.
Assay [17] shares this target. As to the kind of experiment: SPR; Fab captured by anti-His, TF as analyte; LCCA set 9104; estimated from the Fab differing only in L chain tag.
The target is the same in assay [18]. As to the kind of experiment: SPR; Fab captured by anti-His, TF as analyte; LCCA set 9824.
In assay [19] the target is D3H44 Fab heavy chain L143E_K145T, C-terminal ABD2-His6 tag. Kind of assay: LCCA: heavy chain co-expressed with two light chains, SPR detection of light chain tags; L1:L2 DNA 1:3, normalized to 1:1; competing light chain m11.
Assay [20] deals with tissue factor (TF) antigen (UniProt P13726). As to the kind of experiment: SPR; Fab captured by anti-His, TF as analyte; LCCA set 9053.
Assay [21] has the same target. As to the kind of experiment: SPR; Fab captured by anti-His, TF as analyte; LCCA set 9054.
Assay [22] concerns the target D3H44 light chain Q124R_Q160K_T178R, N-terminal HA or FLAG tag. As to the kind of experiment: LCCA, SPR of light chain tags, L1:L2 DNA 1:9 norm. to 1:1; other light chain m27.
The target of assay [23] is D3H44 light chain Q124E_V133E, N-terminal HA or FLAG tag. Kind of assay: LCCA, SPR of light chain tags, L1:L2 DNA 1:3 norm. to 1:1; other light chain m24.
The target in assay [24] is D3H44 light chain Q124E_V133D, N-terminal HA or FLAG tag. The assay is described as above.
Assay [25] addresses D3H44 light chain Q124R, N-terminal HA or FLAG tag. As to the kind of experiment: LCCA, SPR of light chain tags, L1:L2 DNA 1:3 norm. to 1:1; other light chain m18.
Assay [26] has as its target D3H44 light chain Q124R_Q160K_T178R, N-terminal HA or FLAG tag. Kind of assay: LCCA, SPR of light chain tags, L1:L2 DNA 1:3 norm. to 1:1; other light chain m27.
In assay [27] the target is D3H44 light chain Q124E_V133D_S176L, N-terminal HA or FLAG tag. Kind of assay: LCCA, SPR of light chain tags, L1:L2 DNA 1:9 norm. to 1:1; other light chain m17.
Assay [28] addresses D3H44 light chain Q124E_S176L_T180E, N-terminal HA or FLAG tag. Kind of assay: LCCA, SPR of light chain tags, L1:L2 DNA 1:3 norm. to 1:1; other light chain m17.
Assay [29] deals with D3H44 light chain Q124E_V133D_S176L, N-terminal HA or FLAG tag. The description is as above.
The target in assay [30] is D3H44 light chain Q124E_S131T_T178Y_T180E, N-terminal HA or FLAG tag. Described as above.
Assay [31] has as its target D3H44 light chain Q124R_Q160K_T178R, N-terminal HA or FLAG tag. Kind of assay: LCCA, SPR of light chain tags, L1:L2 DNA 1:3 norm. to 1:1; other light chain m15.
Assay [32] has the same target. As to the kind of experiment: LCCA, SPR of light chain tags, L1:L2 DNA 1:3 norm. to 1:1; other light chain m16.
Assay [33] concerns the target D3H44 light chain Q124E_V133D, N-terminal HA or FLAG tag. As to the kind of experiment: LCCA, SPR of light chain tags, L1:L2 DNA 1:9 norm. to 1:1; other light chain m24.
Assay [34] has as its target D3H44 light chain Q124R, N-terminal HA or FLAG tag. As to the kind of experiment: LCCA, SPR of light chain tags, L1:L2 DNA 1:3 norm. to 1:1; other light chain m28.
The target is the same in assay [35]. As to the kind of experiment: LCCA, SPR of light chain tags, L1:L2 DNA 1:9 norm. to 1:1; other light chain m28.
In assay [36] the target is tissue factor (TF) antigen (UniProt P13726). As to the kind of experiment: SPR; Fab captured by anti-His, TF as analyte; LCCA set 9058.

In the case of “D3H44 light chain Q124E_S176L_T180E, N-terminal HA or FLAG tag”, the H1L1:H1L2 normalized median ratio in [1] was found to be 43%. For the same substance, the H2L2:H2L1 normalized median ratio in assay [2] and in assay [3] was 97% each time.
“D3H44 Fab heterodimer, H L124R_H172T / L V133G_N137K_S174R_S176D (H1L1 Fab of LCCA sets 9374, 9375)”: in [4], the Change in KD with respect to wild type (-(log(KD design) - log(KD wt))) was -0.16 and the dissociation constant (Kd) came out at 0.23 nM. In assay [5], this substance gave a Change in KD with respect to wild type (-(log(KD design) - log(KD wt))) of -0.16 and a Kd of 0.23 nM.
In assay [6], “D3H44 Fab heterodimer, H L124E_A139W / L F116A_V133G_L135V_S176R (H1L1 Fab of LCCA set 9116)” yielded a Change in KD with respect to wild type (-(log(KD design) - log(KD wt))) of -0.02 and a Kd of 0.16 nM.
Regarding “D3H44 Fab heterodimer, H Q39E_K145T_Q179E / L Q38R_S131K (H1L1 Fab of LCCA set 9814)”, in assay [7], the Change in KD with respect to wild type (-(log(KD design) - log(KD wt))) is -0.01 and the Kd was found to be 0.16 nM.
In [8], “D3H44 Fab heterodimer, H L124R_A125R_H172T / L V133G_N137K_S174R_S176D (H1L1 Fab of LCCA set 9347)” yielded a Change in KD with respect to wild type (-(log(KD design) - log(KD wt))) of -0.16 and a Kd of 0.23 nM.
In the case of “D3H44 Fab heterodimer, H Q39E_K145T_H172R_Q179E / L Q38R_S131K (H1L1 Fab of LCCA set 9813)”, in [9], the Change in KD with respect to wild type (-(log(KD design) - log(KD wt))) is -0.05 and the dissociation constant (Kd) is 0.18 nM.
As to “D3H44 Fab heterodimer, heavy L124E_L143E_K145T / light Q124K_V133G_S176R_T178K”, in assay [10], the dissociation constant Kd is 0.21 nM. Besides, in assay [11], the Change in KD of h1|1 Fab heterodimer with respect to wild type (-(log(KD design) - log(KD wt))) is -0.12.
On to “D3H44 Fab heterodimer, heavy L124E_L143E_K145T / light Q124K_V133G_S176R_T178R”, for which the dissociation constant Kd in assay [10] is 0.18 nM. The Change in KD of h1|1 Fab heterodimer with respect to wild type (-(log(KD design) - log(KD wt))) in [11] was -0.07.
On to “D3H44 Fab heterodimer H L124E_L143E_K145T / L Q124K_V133G_S176R_T178K (H1L1 Fab of LCCA Set # 9298)”, for which, in assay [12], the Change in KD with respect to wild type (-(log(KD design) - log(KD wt))) was -0.12 and the Kd is 0.21 nM.
As to “D3H44 Fab heterodimer, H L45P_K145T_Q179E / L P44F_S131K (H1L1 Fab of LCCA sets 9746, 10549)”, the Change in KD with respect to wild type (-(log(KD design) - log(KD wt))) in assay [13], in assay [14] and in assay [15] was -0.35 throughout. In addition, the Kd in assay [13], in [14] and in [15] was 0.35 nM each time.
In assay [16], “D3H44 Fab heterodimer, H A139W_L143E_K145T_Q179E / L F116A_Q124R_L135V_T178R (H1L1 Fab of LCCA set 9060)” displayed a Change in KD with respect to wild type (-(log(KD design) - log(KD wt))) of 0.04 and an equilibrium dissociation constant (Kd) of 0.14 nM.
With “D3H44 Fab heterodimer, H L124E / L S131T_V133G_S176R_T178Y (H1L1 Fab of LCCA set 9104)”, in [17], the Change in KD with respect to wild type (-(log(KD design) - log(KD wt))) was -0.01 and the equilibrium dissociation constant (Kd) is 0.16 nM.
For the substance “D3H44 Fab heterodimer, H Q39R_H172R_S186R / L Q38E_Q124E_Q160E_T180E (H1L1 Fab of LCCA set 9824)”, in assay [18], the Change in KD with respect to wild type (-(log(KD design) - log(KD wt))) stood at 0.03 and the Kd was found to be 0.15 nM.
For the substance “D3H44 light chain S131E, N-terminal HA or FLAG tag”, the H2L2:H2L1 normalized median ratio in assay [3] was 98%. The H1L1:H1L2 normalized median ratio in assay [19] amounted to 53%.
In assay [20], “D3H44 Fab heterodimer, H A139G_Q179K_V190A / L Q124E_L135W_Q160E_T180E (H1L1 Fab of LCCA sets 9053, 9054)” showed a Change in KD with respect to wild type (-(log(KD design) - log(KD wt))) of 0.05 and an equilibrium dissociation constant (Kd) of 0.14 nM. In assay [21], this substance yielded a Change in KD with respect to wild type (-(log(KD design) - log(KD wt))) of 0.05 and a dissociation constant Kd of 0.14 nM.
As to “D3H44 Fab heavy chain L143E_K145T_S188L, ABD2-His6 tagged”, the H1L1:H1L2 normalized median ratio amounted to 76% in assay [22]; 31% in [23]; 16% in assay [24]; 69% in assay [25]; 77% in assay [26]; 24% in assay [27]. Besides, the H1L1:H1L2 normalized median ratio stood at 43% in [28]; 23% in assay [29]; 26% in [30]; 74% in assay [31]; 57% in assay [32]; 21% in [33]. Besides, the figures for the H1L1:H1L2 normalized median ratio in [34] and in [35] were 84% and 79%, respectively. The H1L1:H1L2 normalized median scalar value ln(r1/f1) in [22] came to 4; in assay [25], 0.81; in assay [26], 1.22; in assay [31] it was 1.03; in assay [32] it was 0.28; in [34] it was 1.63. This substance also had an H1L1:H1L2 normalized median scalar value ln(r1/f1) in assay [35] of 1.32.
As to “D3H44 Fab heterodimer, H A139W_L143E_K145T_Q179E / L F116A_Q124R_L135V (H1L1 Fab of LCCA set 9058)”, in assay [36], the Change in KD with respect to wild type (-(log(KD design) - log(KD wt))) was 0.12 and the Kd is 0.12 nM.
